Measured values from article PMC3025356, “Mechanism of the Ca^2+-Dependent Interaction between S100A4 and Tail Fragments of Nonmuscle Myosin Heavy Chain IIA” (Journal of Molecular Biology, 2011).
Where two headings read alike, the source gives them in different places.

How the values were obtained:
[1] = molecular target: S100A4 (wild type, full-length) (UniProt P26447); test: fluorescence polarisation; competition: displacement of F-M16^N (5 μM) from S100A4 (5 μM) by increasing M32 or M16^N, with Ca2+; fit to a competitive single-site model with Kd of F-M16^N fixed at 2 μM
[2] = molecular target: S100A4 (wild type, full-length) (UniProt P26447); test: fluorescence polarisation; as a1 but without Ca2+: EGTA added to 1 mM at the end of the titration
[3] = molecular target: S100A4 (wild type, full-length) (UniProt P26447); test: stopped-flow fluorescence; 0.1 μM F-M16^N mixed with S100A4, fluorescein emission intensity, with Ca2+; kobs against [S100A4]; dissociation also by displacement with excess M32
[4] = molecular target: S100A4 (wild type, full-length) (UniProt P26447); test: as above; remark: listed apart in the source
[5] = molecular target: S100A4 (wild type, full-length) (UniProt P26447); test: fluorescence polarisation; fluorescein anisotropy; 0.1 μM F-M16^N titrated with S100A4; 20 mM NaCl, 10 mM Hepes, 1 mM Mg2+, 100 μM Ca2+, pH 7.5, 20 °C; apparent; 1:1 binding per S100A4 monomer assumed
[6] = molecular target: S100A4 (wild type, full-length) (UniProt P26447); test: fluorescence polarisation + other: stopped-flow fluorescence; K2 with Ca2+: anisotropy value corrected for the 35% quench of fluorescein, identical with k-2/k2 of the stopped-flow records; per S100A4 monomer

Chain of S100A4 (wild type, full-length) (P26447 whole entry): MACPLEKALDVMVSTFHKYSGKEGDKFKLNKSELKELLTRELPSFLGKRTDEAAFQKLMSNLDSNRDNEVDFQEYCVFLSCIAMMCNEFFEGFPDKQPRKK

Kd [1] [µM]	Kd [2] [µM]	koff [3] [s⁻¹]	kon [3] [M⁻¹ s⁻¹]	koff [4] [s⁻¹]	Kd [5] [nM]	Kd [6] [nM]	Substance
> 100	–	–	–	–	–	–	M16^N myosin peptide (NM-MHC IIA D1908-R1923) (from UniProt P35579-1 1908-1923)
–	> 300	6.2	4.9e+06	7.7	2000	1300	F-M16^N, fluorescein-labelled M16^N myosin peptide (NM-MHC IIA D1908-R1923) (from UniProt P35579-1 1908-1923)
